In patent CN115677856A (DONGGUAN PENGZHI BIOTECHNOLOGY CO LTD, dated 2023):

Biological target: 人IgM (human, UniProt P01871 1-453)
Assay: AMC sensor kinetics, antibody captured on the sensor, human IgM in graded dilutions in solution

Sequence of 人IgM (P01871 other isoform, or with tags, fused parts or gaps): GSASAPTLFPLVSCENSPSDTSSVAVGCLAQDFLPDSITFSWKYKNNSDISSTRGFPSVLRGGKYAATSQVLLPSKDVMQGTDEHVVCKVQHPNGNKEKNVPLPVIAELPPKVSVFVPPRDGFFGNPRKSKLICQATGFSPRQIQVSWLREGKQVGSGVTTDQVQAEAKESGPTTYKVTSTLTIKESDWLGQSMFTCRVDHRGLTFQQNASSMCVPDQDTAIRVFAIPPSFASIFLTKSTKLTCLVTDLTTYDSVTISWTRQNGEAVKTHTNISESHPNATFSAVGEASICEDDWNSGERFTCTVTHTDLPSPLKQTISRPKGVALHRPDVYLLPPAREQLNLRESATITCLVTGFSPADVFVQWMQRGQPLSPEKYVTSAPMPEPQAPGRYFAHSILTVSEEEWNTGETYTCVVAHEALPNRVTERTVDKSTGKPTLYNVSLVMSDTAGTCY

Binder	Kd [pM]	koff [s⁻¹]	kon [M⁻¹ s⁻¹]
Ig-M-9G1RMb1抗体 (antibody, mouse IgG1, kappa, V domains shown, It was detected with goat anti-mouse IgG-HRP and captured on AMC sensors; also called 抗人IgM抗体) VH: EVQLQQSGAELVKPGASVKLSCTTSGFSIKDAYIHWVKQRPKQGLEWIGRIDPANGYTKYDPKFQGKATITADKSSSTAYMQLRSLTSEDSAVYYCAREPLPHYYAMDYWGQGTSVTVSS VL: DIQMTQSPSSLSASLGERVSLTCRASQEISGFLSWLQQKPDGTIKRLIYAASTLDSGVPKRFSGSTSGSDYRLKISSLESEDFADYYCIQYTSFPLTFGAGTKLELKR	3.02	2.84e-05	9.41e+06
Ig-M-9G1RMb2抗体 (antibody, V domains shown) VH: EVQLQQSGAELVKPGASVKLSCTTSGFSIKDAYIHWVKQRPKQGLEWIGRIDPANGYTKYDPKFQGKATITADKSSSTAYMQLRSLTSEDSAVYYCAREPLPHYYAMDYWGQGTSVTVSS VL: DIQMTQSPSSLSASLGERVSLTCRASQEISGFLSWLQQKPDGTIKRLIYAASTLDSGVPKRFSGSTSGSDYRLKISSLESEDFADYYCLQYTSFPLTFGAGTKLELKR	4.27	6.07e-05	1.42e+07
